Test results: paper PMC7610968 (Molecular cell, 2007)

Target: T1, szz-tagged mutant Rrp44-cat protein (S. cerevisiae, UniProt Q08162 1-1001, D551N)
T1 sequence (looked up): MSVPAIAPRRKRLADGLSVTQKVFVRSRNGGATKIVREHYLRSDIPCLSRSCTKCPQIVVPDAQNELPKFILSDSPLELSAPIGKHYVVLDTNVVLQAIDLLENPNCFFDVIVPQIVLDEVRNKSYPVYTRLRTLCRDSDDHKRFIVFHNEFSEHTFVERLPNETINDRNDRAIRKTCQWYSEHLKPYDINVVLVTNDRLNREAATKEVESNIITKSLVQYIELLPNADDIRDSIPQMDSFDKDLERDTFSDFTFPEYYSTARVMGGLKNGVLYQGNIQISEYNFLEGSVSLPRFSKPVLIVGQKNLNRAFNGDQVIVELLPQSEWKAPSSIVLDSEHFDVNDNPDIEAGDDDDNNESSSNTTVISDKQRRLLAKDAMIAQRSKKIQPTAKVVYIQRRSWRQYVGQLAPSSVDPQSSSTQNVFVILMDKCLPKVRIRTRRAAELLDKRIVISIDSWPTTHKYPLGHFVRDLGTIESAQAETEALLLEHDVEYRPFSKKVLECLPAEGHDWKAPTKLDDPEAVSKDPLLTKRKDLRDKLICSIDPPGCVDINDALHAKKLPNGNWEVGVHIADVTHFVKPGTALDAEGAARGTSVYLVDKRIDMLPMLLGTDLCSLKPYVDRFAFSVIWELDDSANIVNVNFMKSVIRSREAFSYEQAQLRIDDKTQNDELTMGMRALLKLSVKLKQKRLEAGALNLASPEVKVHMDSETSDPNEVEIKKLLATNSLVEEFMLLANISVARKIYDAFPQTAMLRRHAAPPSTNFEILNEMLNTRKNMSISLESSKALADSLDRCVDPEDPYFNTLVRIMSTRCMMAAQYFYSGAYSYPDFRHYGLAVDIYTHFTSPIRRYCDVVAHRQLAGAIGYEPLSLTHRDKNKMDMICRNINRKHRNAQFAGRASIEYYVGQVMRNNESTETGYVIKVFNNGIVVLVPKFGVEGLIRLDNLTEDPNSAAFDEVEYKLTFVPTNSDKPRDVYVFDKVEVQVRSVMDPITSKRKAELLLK
Assay: co-IP

B1: Rrp6 (natural protein, UniProt Q12149 1-733, looked up)
chain: MTSENPDVLLSRVINVVRAASSLASQDVDFYKNLDRGFSKDLKSKADKLADMANEIILSIDEHHESFELKEEDISDLWNNFGNIMDNLLEMSDHSLDKLNCAINSKSRGSDLQYLGEFSGKNFSPTKRVEKPQLKFKSPIDNSESHPFIPLLKEKPNALKPLSESLRLVDDDENNPSHYPHPYEYEIDHQEYSPEILQIREEIPSKSWDDSVPIWVDTSTELESMLEDLKNTKEIAVDLEHHDYRSYYGIVCLMQISTRERDYLVDTLKLRENLHILNEVFTNPSIVKVFHGAFMDIIWLQRDLGLYVVGLFDTYHASKAIGLPRHSLAYLLENFANFKTSKKYQLADWRIRPLSKPMTAYARADTHFLLNIYDQLRNKLIESNKLAGVLYESRNVAKRRFEYSKYRPLTPSSEVYSPIEKESPWKILMYQYNIPPEREVLVRELYQWRDLIARRDDESPRFVMPNQLLAALVAYTPTDVIGVVSLTNGVTEHVRQNAKLLANLIRDALRNIKNTNEEATPIPSSETKADGILLETISVPQIRDVMERFSVLCNSNISKSRAKPVTNSSILLGKILPREEHDIAYSKDGLPNKVKTEDIRIRAQNFKSALANLEDIIFEIEKPLVVPVKLEEIKTVDPASAPNHSPEIDNLDDLVVLKKKNIQKKQPAKEKGVTEKDAVDYSKIPNILSNKPGQNNRQQKKRRFDPSSSDSNGPRAAKKRRPAAKGKNLSFKR
  fold recovered against wild-type Rrp44-szz: ~2 fold
